This is an account of results in article PMC4434759.

This test concerns the target PsIAA4 PB1^AM3 (D151A/D153A/D155A) (pea (Pisum sativum)). Put plainly: ITC. On the technique in general: ITC needs no label: the signal is the heat of the interaction.

As a reminder, the Kd is a measure of binding affinity in units of concentration. By stoichiometry N is commonly meant a count of units in the complex or per binding partner.

“PsIAA4 PB1^BM3 (K96A/R106A/K107A) (domain or fragment)” displayed a Kd of 6.4 µM and a stoichiometry N of 1.
